Here are results for 18 sequences from a protein production outcome set (Wang et al. 2014).

The nature of the data set: label from the status in PepcDB records.
In the case of “MSSVCFSVSREKLSGDIMLEKLNHYRQNLNFPLARPKNSSTQFRFDWVDNLRELQEVQRFRATQFSHQFGIHFDDGLDQDLYDFNCEHAVLREKWTGEIVAYTRLKLFQGHELSQSYSAQEFDIVDKLSYLPNVVEIGRTCVHPKFRSGKALSTLWLNLVPKVLWSMKAKYLMGCVSIHLDDNAARVYHTHQKIQRLSAEQTIDISSKCAYEPTHPQFSFPQDERIPKLFQMYLTMQSKLSKEAFYDEDFNCLDYFVFLEVNKIAKSFVMNKMVQR”, the protein production result is listed as “failed”.

For “MSTARPRIITSKAPLLPQQTTPEQRYWRQYTSAQLVKEHNSVTHISFNPQHPHDFAVTSSTRVQIFSSRTRQVIKTFSRFKDVVYSASFRSDGKLLCAGDATGLVSVYDSYNPRTILLSINASTHPTHVTKFHTQDNKILATASDDRVTRLWDISNAYEPQLELTGATDYVRTLSFIPAAPHLVATGSYDGLIRLYDTRSSGSTPIYSLNHDQPVENVIAVSPTQIVSCGGNNFKVWDLTSNKKLYERGNFNKAVTCLDYVENFDSPMQSALIASSLDGHVKVFDPLDNFQVKFGWKFSGPVLSCAVSPSTAQGNRHLVAGLSSGLLAIRTKKKEKRSSDKENAPASFNKNAKSNNFQRMMRGSEYQGDQEHIIHNDKVRSQRRMRAFERNINQFKWSEALDNAFVPGMAKELTLTVLQELRKRGKVRVALYGRDESTLEPLLNWCLKGIEDVRSASIVADWVAVVLELYGNTLESSPVLQELMIDLKTKVRHEIHKSKEAQRIEGMLQLLTS”, the protein production entry is “failed”.

Turning to “MSTASGITMASMSTYAILGCGSVGHAVAEELVEEGKDVLILDADEGRVEALRDQDLNAQQADICETDVAQTVADRDVVLIMSPDVNANAEAVRNIRESGGEQFIVARADDPVSADDLTELGADVVINPSAVIADSALRALETGELEYKASQLGDVIDGTEERMAILIHRSPDPDSIASAAALRAIAASRDVDADIIYEGEIGHQENRAFVNLLGIELTSNEDVNLDEYDTFALVDVAKGGEPAVESVDIVIDHYEHEHELEHDAAFSDIRPNISATSTILTKYIQELDLNLDQSVATALLYGIRAETLDFKRDTTPADLTAAAYLYPFADHDTLEQVESPSMSPETLDVLAEAIRNREVQGSHLVSNAGFIRDRDALAQAAQHLLNLEGITTTAVFAIADDTIYLAARSKDIRMNIGKVLSDAFGGMGETAGHSTDASVEIPLGIFTGLDTSDDNRDTLLELTEEAVKRKLFEAMGVDSSSSESSNGN”, the protein production result is reported as “not failed”.

Regarding “MSTATLSGQSPSAQRRPMTREERRVIFASSLGTVFEWYDFYLYGSLAAIIAQHFFSGVNPTAAFIFALLAFAAGFAVRPFGALVFGRLGDLVGRKYTFLITIVIMGLSTFLVGVLPSYASIGIAAPAILIILRLLQGLALGGEYGGAATYVAEHAPHGRRGFYTSWIQTTATLGLFLSLLVILGVRTFMGEEAFKDWGWRIPFLISVVLLGISVWIRLQLNESPTFKRMKEEGKGSKAPIAESFGQWRNLKVVILALLGLTAGQAVVWYTGQFYALFFLTQSLKIDSNTANIMIAIALLVGTPFFVLFGALSDRIGRKPIIMAGCLIAALTYFPIFKGLTHYANPALEKAQATAPVTVIADPATCSFQFNPVGTASFTSSCDVVKSFMARNSVNYENQSAAAGSVAKVMIGNDEFASFDGKGLAPAEFKTKATELDKALTAAIRSHGYPAKADPAQTNYFMVVVLLTLLVIYVTMVYGPIAAMLVEMFPTRIRYTSMSLPYHIGNGWFGGFLPPVAFAVVAATGNIYDGLWYPIIIAVMTLVIGTLFVRETKDNDINA”, the protein production entry is given as “not failed”.

For the sequence “MSTDILSAIGLTIIFVGLVLVIVGIVSGIIKSSKKERNENQREETKTEYGGVIFIGPIPIVFGSNKDMAKMALIIGVIMVVLIIAFVVLSYVV”, the protein production entry was “failed”.

Consider “MSTDTCIKRPTRSELVDRFQKKIRAGEPIIGGGAGTGLSAKSEEAGDIDLIVIYNSGRYRMAGRGSLAGLLAYGNANQIVVDMAREVLPVVRHTPVLAGVNGTDPFMVMSTFLRELKEIGFAGVQNFPTVGLIDGLFRQNLEETGMSYAQEVEMIAEAHKLDLLTTPYVFSPEDAVAMAKAGADILVCHMGLTTGGAIGARSGKSMDDCVSLINECIEAARTIRDDIIILSHGGPIANPEDARFILDSCQGCHGFYGASSMERLPAEEAIRSQTLAFKAIRRQPA”, for which the protein production result was “not failed”.

For “MSTEQLLVLIAQNDIKDDIVDTLIELEFLSGFSLGNICGFSREHSHFNIKEQVEGYREFCKFEIMHPAAQQAALLTALALVCKHNPCRYWIMPIYQNGTLS”, the protein production entry is “not failed”.

Take “MSTIDFRPYGGFIFDMDGTLIDTMPAHLAAWQATADRFDFPFCQEWLHSLGGMPSFKIVAELNRHYGLSLDPQTVSKFKMETFAAMELQGDVIQCTGIVLEEYLGQKKIAVGTGSQRESAMRLLSHAGLIDRLDAVVTASDVENHKPCPDTFLLAADRLGIDAQNCLVFEDTELGKRAAHSAGMDCVMVEGNNLVFYPKR”: the protein production result is listed as “not failed”.

“MSTIIETGKSDFIKVNVSNSHNDAVAFEVKLAKDLTVAQLKTKLEILTGGCAGTMKVQVFKGDTCVSTMDNNDAQLGYYANSDGLRLHVVDSFATFSFDSAPVEKFELSKDQYEQRTDSVRNYLKINRMGKYNDEEMQQAEEKKRLQAEEIQKRAELCVLGGRCEVTVPGNPTRRGTIRYNGPLEGKSGHFIGVEYDEPLGKNNGSFGGKAYFTCAPNYGGFVSPLSVTVGDFPPEDFNMDDEL”: the protein production entry is on record as “failed”.

On to “MSTILSLAPQNVWKHFYSLTQVPRPSGYLKKVQEFLLNFGKSVGVESFQDEAGNIIYRKPATPGMENRKKVILQAHMDMVPQKNNDTVHDFENDPIETYIDGDWVKAKGTTLGADDGMGVAAIMAIMEDKTLKHGPLEALITADEETGMFGAFGLKPGTVDGDILLNLDSEEEGELYIGCAGGEDLTAVLEYKEVETDPADIALKVTLKGLRGGHSGLEINEGRANANKLMARFMNQVITYDEACLVSWQGGNMRNAIPRECEVVITVPAEEEADVLEFVQECEALWNEEYHVHETPISFKAERVELPAMMVPDEIKDNLVDAIYACQNGVMRMIPTIPDTVETSSNLAIVSIGGGKAEIKILARSSRDSMKDYLNTALESCFSMAGMEVTRSGGYSGWEPNVDSPILKAMKESYKAQFGTEPAVKVIHAGLECGIIGAVVPGLDMISFGPTLRSPHSPDERCFIPSVGKFYDFVVATLENTPVKE”, for which the protein production result was “failed”.

As for “MSTKKPAAAYSEASIKVLKGLEPVKQRPGMYTRTENPLHIIQEVIDNASDEALGGFGKQITVTLHPDQSVSVEDDGRGIPFGLHPEEKVPVVEIVFTRLHAGGKFDKAKGGAYTFSGGLHGVGVSVTNALATRLDVTVWRDGKIAQLGFADGDVVKPLATQGAGRGEKKSGTRVTVWPNPKYFDSPNLPLGELQRLLRSKAVLLPGVEVVLVNEKTGERQSWKYEDGLRGYLLDEMNGSELLIPLFEGERFADSRSGDDTFAEGEGASWVVAWSEEGSLVRESYVNLIPTPAGGTHESGLRDGLYQAVKSFVELHNLQPKGVKLLAEDVFARVSFVLSAKVLDPQFQGQIKERLNSRDAVKLVSSFTRPALELWLNQHVEHGKKLAELVIKQAQARTRAGQKIEKKKSSGVAVLPGKLTDCETEDIARNELFLVEGDSAGGSAKMGRDKEYQAILPLRGKVLNTWETERDRLFANNEVHDISVAIGVDPHGPDDSVDVSNLRYGKICILSDADVDGAHIQVLLLTLFFKHFPQLIERGHVFVARPPLFRVDAPARGKKPAQKLYALDEGELEAILDKLRKDGVRESQWTISRFKGLGEMSAEQLWDTTMNPDTRRLMPVALGELDFEATVARMTMLMGKGEAAARRNWLEEKGNEVEADI”, the protein production result is on record as “failed”.

In the case of “MSTLPTPPRPRPVDIIIPVYKGLEETRLCLESVLATLPAADGLIVIDDHSPDPALVAYLKDRAAGDRRIRLLHNPENLGFVGTVNRGMALEPERDVLLLNSDTEVAGDWVARLRAAAYADRRIGTVTPFSNNATICSWPRFCQDNPLPPGLDVAGVDRAFAAANPGLSIDIPTGVGFAFYIRRDCLDEVGLFNAEAFGKGYGEENDFCRRAHHRGWRNVLAADTFVYHSGNVSFGVNQERLDSAMRQLLALHPDYRRVVQLHINQDPAQNMRWRAALGILRQSALPVLLFVTHNHGGGTLSHVHELAKALEGRAWGLLLTPGPRNTAVVTLPASLGGDALPFDLEQDWDGLLDLLRYAGVNRLHLHHMLGVPERLLDLPEQLSIPFDFTAHDFHAGCPRVMLCGPGSRYCGQPEERALCDACLAQAPKTEAGDITSWRAAMVARLSRAERLFAPSADTANRLKRMLPALSFRAIPHPDAQGLATNAPPPLLRPCGTTEPLRILVLGALSRAKGADLVEATAREAARGDLPLEIHLLGYGYRPLHRARGRLTAHGRYHPEEIAGHLERIAPHVAWLPAGWPETYSYTLSEVMAAGLPVVVSDLGAPPERILGRPLSWVLPWNVDASTAAAFFGRLRAGEIPASPEAPALSPQSTPRVDFYREGYLAEVFPEKARARLPEREIGELIGQALDRAGARRRRLQCWGDLKVVRQRIWRSLITLLAHPSLFPLVSRIPVSFQERLKRLIKG”, the protein production entry is reported as “failed”.

In the case of “MSTNQEKLFGRLLLKNDILQLIKNTDKISVSKIFSNFLLETKVNPILGMTSISSNKIKCNRCGTVHIKNSVKLPIGVFYCPSCIQLGRVRSDDFLYFLPQKNFPKKSYINWSGKLTENQKSISNALCQEINSHQQIIVQAVTGAGKTEMIYQVIEQILESGGVVGLASPRIDVCLELHQRLSRDFSCKIPLLYHDGDSYFRAPLIIMTSHQLLRFKEAFDLLIIDEVDAFPFRDNEMLYVAAEKARKIEGNLIYLTATSTDKLEKDIKKQKLYPLFLPRRFHNFPLVVPKFFWKNKFDKKLIEQRNSGFPLLIFAAEIEFGQEFAKQLQLKFPKEKIASVASTTKDRLEIVKAFRNKEITILIATSILERGVTFPNVDVFVINSEHPNFTKSALIQMAGRVGRSPERPTGLVSFFHYGKSKAMCQAVREIKKMNQLGCFS”, the protein production result was “failed”.

On to “MSTNYIDCQLLNKMERQPSFSSFDCGDPFLDSFAPKKLANADANNDSRVYVAVDGDIGVGYATMKVFMLSNDEYKILSGKYPRQVPVVMLDQIAVDKAYQGKGIGKRLMRKVLEATVLVNELAAAKGLALWAHPRAKDFYESLGFEAIPDATKQVQDVELTLMFIHVETILDALK”, for which the protein production result is “failed”.

Consider “MSTPDIGTFTVRPLDPTRDAELLHGWVTHPKSAFWMMQEARLHDVEREYMAIAASEYHDAFLGLLDDEPVFLMEKYDPAHVELVGLYEPEPGDVGMHFLVAPTDTPVHGFTRAVITAVMEHLFADPATRRVVVEPDVGNKAVHALNEAVGFVPEREIQKPEKKALLSFCTREQFAAAVRGAAV”, for which the protein production entry was “not failed”.

As to “MSTPLQGIKVLDFTGVQSGPSCTQMLAWFGADVIKIERPGVGDVTRHQLRDIPDIDALYFTMLNSNKRSIELNTKTAEGKEVMEKLIREADILVENFHPGAIDHMGFTWEHIQEINPRLIFGSIKGFDECSPYVNVKAYENVAQAAGGAASTTGFWDGPPLVSAAALGDSNTGMHLLIGLLAALLHREKTGRGQRVTMSMQDAVLNLCRVKLRDQQRLDKLGYLEEYPQYPNGTFGDAVPRGGNAGGGGQPGWILKCKGWETDPNAYIYFTIQEQNWENTCKAIGKPDWITDPAYSTAHARQPHIFDIFAEIEKYTVTIDKHEAVAYLTQFDIPCAPVLSMKEISLDPSLRQSGSVVEVEQPLRGKYLTVGCPMKFSAFTPDIKAAPLLGEHTAAVLQELGYSDDEIAAMKQNHAI”, the protein production entry is on record as “failed”.

With “MSTPLTLIATITAAPGHAEALERELRALVAPSRAEAGCLQYDLHQDRHDSHLFYMIEQWRDDAALERHQNTEHFLRFSRGNEALLQNVKIDQLYRLA”, the protein production result is “not failed”.

Take “MSTQFKLPLASPLTHGREDFAVSPSNGEAVARLDAWPDWAEGRLVLVGPAGCGKSHLARAWAAAAGAVVVEAANPDAASVDLSALRGRAVLVEDADRRAQGAAVSDEALFHILNMAGVDGGTVLLTGRTAPLTWSAEVADLRSRLNALSVAEIAEPDDAVLEAVLRRAFAAAWWKPEPDLYPYLLARLPRSAAEAQAAAALLAEAAADGRRELTKALAREVLEGFEGDEGLEHHHHHH”: the protein production entry is reported as “failed”.
